Test results: patent publication US20260184815A1 (published 2026)
Changes are numbered by the printed parent chain. Like-named read-outs stand apart in the source and are kept apart here.

B1: M9-A03 (Fab, V domains shown)
VH: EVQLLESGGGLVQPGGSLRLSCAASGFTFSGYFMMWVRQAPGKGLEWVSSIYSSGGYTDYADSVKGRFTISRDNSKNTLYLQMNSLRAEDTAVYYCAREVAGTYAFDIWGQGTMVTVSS
VL: DIQMTQSPSSLSASLGDRVTITCRASQNIDIYLNWYQQTPGKAPKLLIYGAYNLQSGVPSRFSGSGSGTDFTLTISSLQPEDFGTYYCQQSYGTPVFGQGTKLEIK
notes: HC as printed runs into CH1
B2: M6-A06 (Fab, V domains shown)
VH: EVQLLESGGGLVQPGGSLRLSCAASGFTFSLYQMTWVRQAPGKGLEWVSGIWPSGGFTDYADSVKGRFTISRDNSKNTLYLQMNSLRAEDTAVYYCARVSTAVADNDYWGQGTLVTVSS
VL: DIQMTQSPSSLSASVGDSVTISCRASQSISMYLNWYQHKPGKAPKLLIYGTSSLQSGVPSRFSGSGPGGTDFTLTISSLQPEDFATYYCQQSYSAPWTFGQGTKVEIK
notes: HC as printed runs into CH1
B3: M6-D03 (Fab, V domains shown)
VH: B2 VH with L31K, Q33F, T35G, G50V, W52G, P53S, F57W, D59S
VL: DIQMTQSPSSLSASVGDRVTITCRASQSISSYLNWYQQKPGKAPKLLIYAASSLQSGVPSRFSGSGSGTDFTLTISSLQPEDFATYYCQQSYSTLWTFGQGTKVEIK
notes: HC as printed runs into CH1
B4: M8-H04 (Fab, V domains shown)
VH: EVQLLESGGGLVQPGGSLRLSCAASGFTFSGYWMGWVRQAPGKGLEWVSSISSSGGWTQYADSVKGRFTISRDNSKNTLYLQMNSLRAEDTATYYCARDDEIAAGGAFDIWGQGAMVTVSS
VL: DIQMTQSPSSLSASIGDRVTITCRASQYISTYLNWYEQKPGKAPKLLIYGTSSLQSGVPSRFSGSGSGTEFSLTISSLQPEDFATYYCQQSFTTPFTFGQGTKLEIK
notes: HC as printed runs into CH1
B5: M6-D08 (Fab, V domains shown)
VH: EVQLLESGGGLVQPGGSLRLSCAASGFTFSRYHMVWVRQAPGKGLEWVSSISPSGGWTNYADSVKGRFTISRDNSKNTLYLQMNSLRAEDTAMYYCAREMATIAGQFDPWGQGTLVTVSS
VL: DIQMTQSPSSLSASVGDRVTITCRASQSISSYLNWYQQKPGKAPKLLIYGASSLQSGVPSRFSGSGSGTDFTLTISSLQPEDSATYYCQQSYTRWTFGQGTKVEIK
notes: HC as printed runs into CH1; LC amber q (WYqQK) written as Q
B6: M8-D05 (Fab, V domains shown)
VH: EVQLLESGGGLVQPGGSLRLSCAASGFTFSLYNMNWVRQAPGKGLEWVSSISPSGGFTDYADSVKGRFTISRDNSKNTLYLQMNSLRAEDTAVYYCARDLDLGILDYWGQGTLVTVSS
VL: DIQMTQSPSFVSASVGDRVTITCRASQDISSWLVWYQQKPGKGPKLLIYDASNLQSGVPSRFSGGGSGTHFTLTISSLQPEDFATYYCQQADGFPLTFGGGTKVEMK
notes: HC as printed runs into CH1
B7: M9-C08 (Fab, V domains shown)
VH: EVQLLESGGGLVQPGGSLRLSCAASGFTFSHYGMVWVRQAPGKGLEWVSYIVPSGGLTYYADSVKGRFTISRDNSKNTLYLQMNSLRAEDTAVYYCARVDYTGDGLGYWGQGTLVTVSS
VL: DIQMTQSPSSLSASVGDRVTITCRASQSISIYVNWYQQKPGKAPNLLIFAASSLQRGVPSRFSGSGSGADFTLTISSLQPEDFATYYCQQSFSTPLTFGGGTKVEIK
notes: HC as printed runs into CH1
B8: M197-G10 (Fab, V domains shown)
VH: EVQLLESGGGLVQPGGSLRLSCAASGFTFSVYAMRWVRQAPGKGLEWVSSIYPSGGKTWYADSVKGRFTISRDNSKNTLYTLQMNSLRAEDAVYYCAYRRTGIPRRDAFDIWGQGTMVTVSS
VL: DIQMTQSPSTLSASVGDRVTITCRASQSISSWLAWYQQKPGKAPNLLIYKASTLESGVPSRFSGSGSGTEFTLTISSLQPDDFATYYCQQYNTYWTFGQGTKVEIK
B9: M201-F11 (Fab, V domains shown)
VH: EVQLLESGGGLVQPGGSLRLSCAASGFTFSHYIMMWVRQAPGKGLEWVSGIYSSGGITVYADSVKGRFTISRDNSKNTLYLQMNSLRAEDTAVYYCAYRRSGIPRRDAFDIWGQGTMVTVSS
VL: B8 VL with P80Q, D81P, F83D, A84F, T85A, Y86T, C88Y, Q89C
B10: M162-A04 (Fab) (Fab, V domains shown)
VH: B9 VH with S101T
VL: B8 VL
notes: Non-germlined Fab discovered using phage display; HC as printed runs into CH1
B11: M198-A01 (Fab, V domains shown)
VH: B9 VH with H31P, I33T, M35I, G50S, Y52S, I57M, V59P, S101T
VL: B8 VL
B12: M8-G09 (Fab, V domains shown)
VH: EVQLLESGGGLVQPGGSLRLSCAASGFTFSLYEMLWVRQAPGKGLEWVSVIYPSGGYTDYADSVKGRFTISRDNSKNTLYLQMNSLRAEDMAVYYCARSFSGFGEIDYWGQGTLVTVSS
VL: DIQMTQSPSSLSASVGDTVTITCRASQGVSYYLAWFQQKPGKAPKSLIYGASSLQSGVPSKFSGSGSGTVFTLTISSLQPDDFATYYCQQYNTYPPTFGQGTRLDIK
notes: HC as printed runs into CH1
B13: M8-C04 (Fab, V domains shown)
VH: EVQLLESGGGLVQPGGSLRLSCAASGFTFSYYPMQWVRQAPGKGLEWVSYIYPSGGLTSYADSVKGRFTISRDNSKNTLYLQMNSLRAEDTAVYYCARLFYGSGSVGFEYWGQGTLVTVSS
VL: QSALTQPPSVSVSPGQTASITCSGDKLGDKYTSWHQQKPGQSPVLVIYQDSKRPSGIPERFSGSNSGNTATLTISGTQAMDEADYYCQAWDSSTVFGGGTRLTVL
notes: HC as printed runs into CH1
B14: M6-G05 (Fab, V domains shown)
VH: EVQLLESGGGLVQPGGSLRLSCAASGFTFSRYRMVWVRQAPGKGLEWVSSIYPSGGMTAYADSVKGRFTISRDNSKNTLYLQMNSLRAEDTAVYYCARDAVGIGDAFDIWGQGTMVTVSS
VL: DIQMTQSPSSLSASVGDRVTITCRASQSISTYLNWYQLKPGKAPKLLIYNAFSMERGVPSTISGSGSGTDFTLTISSLQPEDFATYYCQQSYTTPTTFGQGTKVEIK
notes: HC as printed runs into CH1
B15: M6-D09 (antibody, V domains shown)
VH: EVQLLESGGGLVQPGGSLRLSCAASGFTFSFYYMVWVRQAPGKGLEWVSVIYPSGGITVYADSVKGRFTISRDNSKNTLYLQMNSLRAEDTAVYYCARDKWAVMPPYYYYAMDVWGQGTTVTVSS
VL: DIQMTQSPSSLSASVGDRVTITCRASQSIRNYLNWYQQKPGKAPNLLIYAASTLQSGVPARFSGSGSGTDFTLTISSLQPEDFATYYCQQLSGYPHTFGQGTKLEIK
notes: also called M06-D09; 559A-M06-D09
B16: M9-A08 (Fab, V domains shown)
VH: EVQLLESGGGLVQPGGSLRLSCAASGFTFSAYEMWWVRQAPGKGLEWVSYIGSSGGSTSYADSVKGRFTISRDNSKNTLYLQMNSLRAEDTAVYYCTGGNSSSFDAFDIWGQGTMVTVSS
VL: DIQMTQSPSSLSASVGDRVTVTCRASQRISTYLNWYQQKPGKAPKLLISGASSLQSGVPSRFSGSGSGTDFTLTISSLQPDDFATYYCQQSYNTPRTFGQGTKVEIR
notes: HC as printed runs into CH1
B17: M209-C12 (Fab, V domains shown)
VH: EVQLLESGGGLVQPGGSLRLSCAASGFTFSHYLMTWVRQAPGKGLEWVSYISPSGGHTIYADSVKGRFTISRDNSKNTLYLQMNSLRAEDTAVYYCARVGRGIAARSRTSQLDYWGQGTLVTVSS
VL: DIQMTQSPGTLSLSPGERATLSCRTSQFVNSNYLAWYQQTPGQAPRLLIYGASSRATGIPDRFSGTGYGTDFTLTISRLEPEDYGTYYCQQSSRTPWTFGQGTRVEIK
B18: M160-G12 (Fab) (Fab, V domains shown)
VH: B17 VH with G100A, Q111Y, L112F
VL: DIQMTQSPSFLSASVGDRVTITCRASQGISSYLAWYQQKPGKAPKLLIYAASTLQSGVPSRFSGSGSGTEFTLTISSLQPEDFATYYCQQLNSYPLTFGGGTKVEIK
notes: HC as printed runs into CH1
B19: M209-D03 (Fab, V domains shown)
VH: B17 VH with Q111F, L112F, Y114Q
VL: B17 VL
B20: M161-C11 (Fab, V domains shown)
VH: EVQLLESGGGLVQPGGSLRLSCAASGFTFSDYAMKWVRQAPGKGLEWVSSISSSGGVTQYADSVKGRFTISRDNSKNTLYLQMNSLRAEDTAVYYCAREEDYSSSWYSRRFDYYYGMDVWGQGTTVTVSS
VL: QSALTQPPSVSVSPGQTASITCSGDKLGDKYVSWYQQRPGQSPVLVIYQDTKRPSGIPERFSGSNSGNTATLTISGTQAVDEADYYCQAWDSSTYVFGGGTKVTVL
notes: HC as printed runs into CH1
B21: M8-E06 (Fab, V domains shown)
VH: EVQLLESGGGLVQPGGSLRLSCAASGFTFSHYFMTWVRQAPGKGLEWVSSIVPSGGMTQYADSVKGRFTISRDNSKNTLYLQMNSLRAEDTAVYYCARDSYSSSWFDIWGQGTMVTVSS
VL: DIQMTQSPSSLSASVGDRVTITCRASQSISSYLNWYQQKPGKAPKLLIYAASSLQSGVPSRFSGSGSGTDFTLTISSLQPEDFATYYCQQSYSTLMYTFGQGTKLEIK
notes: HC as printed runs into CH1
B22: M6-A08 (Fab, V domains shown)
VH: EVQLLESGGGLVQPGGSLRLSCAASGFTFSPYPMQWVRQAPGKGLEWVSSISSSGGMTEYADSVKGRFTISRDNSKNTLYLQMNSLRAEDTAVYYCARDDYGGKGGAFDIWGQGTMVTVSS
VL: DIQMTQSPSSLSASVGDRVTITCRASQRISFYLNWFQQKPGKAPNLLIYGASSLQSGVPSRFSGSGSGTDFTLTISSLQPKDFGTYYCQQTFSTPNTFGQGTKLEIK
notes: HC as printed runs into CH1
B23: M152-A12 (Fab, V domains shown)
VH: EVQLLESGGGLVQPGGSLRLSCAASGFTFSPYFMGWVRQAPGKGLEWVSGIGPSGGSTTYADSVKGRFTISRDNSKNTLYLQMNSLRAEDTAVYYCAREGPPYSSGWYRGLRQYHFDYWGQGTLVTVSS
VL: DIQMTQSPSSLSASVGDRVTITCRASQSISSYLSWYQQRPGKAPNLLIYAASSLQSGVPSRFSGSGSGTDFTLTISSLQPEDFATYYCQQSISIPRTFGQGTKVEVK
notes: HC as printed runs into CH1

Experiments:
human plasma kallikrein [1] = biological target: T1, human plasma kallikrein (human, UniProt P03952 20-390; P03952 391-638); assay: ELISA, biotinylated pKal signal over streptavidin background
T1 construct: also called pKal; Human pKal
From the text: Abbreviations used: “T/B” is the ELISA signal obtained using of the “target” (biotinylated plasma kallikrein) divided by the ELISA signal of the “background” (streptavidin); both of which were coated on microtiter plates, “nd” is not determined. The symbol “q” refers to the amber suppressible stop codon (TAG), which is translated as glutamine (Q) in strains of E. coli such as the TG1 cells that were used to express the Fab fragments.
T1 sequence (P03952 20-390, chain 1 of 2): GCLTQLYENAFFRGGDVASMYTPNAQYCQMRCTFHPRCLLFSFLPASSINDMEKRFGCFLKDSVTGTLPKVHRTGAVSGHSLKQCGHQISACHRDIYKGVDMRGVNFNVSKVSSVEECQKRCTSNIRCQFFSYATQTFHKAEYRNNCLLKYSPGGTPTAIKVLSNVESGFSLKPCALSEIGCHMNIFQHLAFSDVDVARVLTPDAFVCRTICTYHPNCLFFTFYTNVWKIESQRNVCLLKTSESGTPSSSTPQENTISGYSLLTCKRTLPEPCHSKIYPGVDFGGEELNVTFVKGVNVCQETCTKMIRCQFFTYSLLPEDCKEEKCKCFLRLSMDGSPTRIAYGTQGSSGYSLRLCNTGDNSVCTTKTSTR
T1 sequence (P03952 391-638, chain 2 of 2): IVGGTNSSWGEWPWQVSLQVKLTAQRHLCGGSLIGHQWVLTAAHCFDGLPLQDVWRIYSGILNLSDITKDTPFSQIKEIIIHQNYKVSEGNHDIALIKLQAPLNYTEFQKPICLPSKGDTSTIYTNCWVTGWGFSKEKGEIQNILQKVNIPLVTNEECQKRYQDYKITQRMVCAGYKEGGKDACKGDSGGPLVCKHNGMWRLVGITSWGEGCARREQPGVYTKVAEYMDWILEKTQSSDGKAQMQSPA

human plasma kallikrein [2] = biological target: T2, human plasma kallikrein (human, UniProt P03952 20-390; P03952 391-638); assay: cell-based or functional assay
T2 sequence (P03952 20-390, chain 1 of 2): as the sequence (P03952 20-390, chain 1 of 2) above
T2 sequence (P03952 391-638, chain 2 of 2): as the sequence (P03952 391-638, chain 2 of 2) above

[3] = biological target: T3, pKal catalytic domain Mutant 2 (human, UniProt P03952 391-638, limits assumed); assay: enzyme inhibition, equilibrium Ki,app
T3 construct: domain: catalytic domain; Expressed in Pichia pastoris, purified by IMAC; not shown: His tag fusion
T3 sequence (P03952 other isoform, or with tags, fused parts or gaps mutant limits assumed): as the sequence (P03952 391-638, chain 2 of 2) above, with R161A, Q163A, Y165A, T168A, R170A counted along it

human plasma kallikrein [4] = biological target: T2, human plasma kallikrein; assay: cell-based or functional assay; remark: listed apart in the source

Row | Binder | ELISA (T/B) (human plasma kallikrein [1]) | also measured
1 | B1 | 14.4 T/B | –
2 | B2 | 11.7 T/B | –
3 | B3 | 15.5 T/B | –
4 | B4 | 3.3 T/B | –
5 | B5 | 16 T/B | –
6 | B6 | 11.9 T/B | –
7 | B7 | 10.9 T/B | –
8 | B8 | – | % inhibition at 10 nM (human plasma kallikrein [2]): 67.6%
9 | B9 | – | % inhibition at 10 nM (human plasma kallikrein [2]): 15.7%
10 | B10 | 11.4 T/B | –
11 | B11 | – | % inhibition at 10 nM (human plasma kallikrein [2]): 13.8%
12 | B12 | 28.2 T/B | –
13 | B13 | 44.7 T/B | –
14 | B14 | 18.5 T/B | –
15 | B15 | – | fold increase of Ki,app against the wild type catalytic domain [3]: ~5 fold
16 | B16 | 5.5 T/B | –
17 | B17 | – | % inhibition at 10 nM (human plasma kallikrein [4]): 93.4%
18 | B18 | 38.3 T/B | –
19 | B19 | – | % inhibition at 10 nM (human plasma kallikrein [4]): 80.4%
20 | B20 | 41.8 T/B | –
21 | B21 | 8.8 T/B | –
22 | B22 | 23.4 T/B | –
23 | B23 | 19 T/B | –
